Among the data in patent US20220293215A1 are logFC values, retold here.

Assay [1] addresses T1, I-A^b (MHCII) of murine bone marrow-derived dendritic cells from C57BL/6J mice (mouse), P14434.
T1 chain 1: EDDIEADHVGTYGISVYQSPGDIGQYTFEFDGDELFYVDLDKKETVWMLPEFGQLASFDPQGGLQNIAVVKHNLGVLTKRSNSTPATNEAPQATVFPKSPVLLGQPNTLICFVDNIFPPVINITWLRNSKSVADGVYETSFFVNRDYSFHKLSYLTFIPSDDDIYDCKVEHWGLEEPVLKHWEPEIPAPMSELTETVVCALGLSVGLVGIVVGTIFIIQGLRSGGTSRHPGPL
T1 chain 2: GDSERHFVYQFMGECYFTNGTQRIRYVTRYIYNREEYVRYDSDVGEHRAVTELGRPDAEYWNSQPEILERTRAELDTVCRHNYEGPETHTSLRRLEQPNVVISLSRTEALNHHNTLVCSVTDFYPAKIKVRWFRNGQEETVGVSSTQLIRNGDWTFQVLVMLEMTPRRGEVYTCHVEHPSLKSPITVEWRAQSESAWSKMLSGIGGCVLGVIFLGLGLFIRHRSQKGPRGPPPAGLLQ
As to the kind of experiment: MHCII peptidomics: Y3P IP of peptide-MHCII from BMDCs exposed to live Listeria, iTRAQ LC-MS/MS. The following applies: scale: log2 fold change, Listeria 6 hr versus 10 min.

Assay [2] deals with T1, I-A^b (MHCII) of murine bone …. The conditions noted are these: scale: log2 fold change, Listeria 6 hr versus 10 min.

Where two headings read alike, the source gives them in different places.

In assay [1], WNEKYAQAYPNVS (modifications not checked) returned a logFC of 1.38.
Molecule VERWNEKYAQAYPNVS (modifications not checked) registered a logFC in assay [1] of 0.285.
The molecule WNEKYAQAYPNVSAKI (modifications not checked) had a logFC in assay [1] of 1.2.
On to ERWNEKYAQAYPNVS (modifications not checked), for which, in assay [1], the logFC came to 0.207.
Regarding ESVYLSAQKENPRLFAKIETF (modifications not checked) [Listeria peptide …n… (lmo1574 (dnaE))], the logFC in assay [2] worked out at 0.595.
